Test results taken from US20230203435A1 (SYSMEX, published 2023).
Changes are numbered by the printed parent chain. Values belong to the binder of their own block, whether it stands above or below them.

Columns and labels:
[1] = molecular target: T1, animal free recombinant human IL-6 (PeproTech Inc.) (human, UniProt P05231 30-212); experiment: ELISA, antigen coated at 5 ug/mL, HRP anti-human IgG Fc detection
T1 construct: Bought reagent, coated on the ELISA plate; also called interleukin-6
Method: (§1) The affinity of each antibody for an antigen was measured by ELISA method. As antigens of each antibody, human CD20/MS4A1 full-length protein, His tag (HEK293) (ACROBiosystems Inc.), recombinant human ErbB2/Her2 Fc chimera (R&D Systems Inc.), chicken egg white-derived lysozyme (Sigma-Aldrich), animal free recombinant human IL-6 (PeproTech Inc.) and interleukin 8 (CXCL8) (Shenandoah Biotechnology, Inc.) were used. Specific operations are as follows. A solution of various antigens diluted to 5 μg/mL with PBS was added to each well of a 96-well plate (Nunc), and the plate was incubated at 4° C. overnight. After removing the solution from each well, 1% BSA/PBS was added, and the plate was incubated at room temperature for 3 hours. The solution was removed from each well, and then the plate washed three times with PBST. An antibody solution was added to each well, and the plate was incubated at room temperature for 15 minutes. The solution was removed from each well, and then the plate washed three times with PBST. A solution of HRP-labeled anti-human IgG Fc antibody (Bethyl Laboratories, Inc.), HRP-labeled goat F(ab′)2 fragment anti-mouse IgG (H+L) (Beckman Coulter, Inc.) or HRP-conjugated streptavidin (Thermo Fisher Scientific Inc.) diluted to 0.3 μg/mL with 1% BSA/PBS was added to each well, and the plate was incubated at room temperature for 1 hour. The solution was removed from each well, and then the plate washed three times with PBST. Chromogenic reaction was performed using KPL TMB (registered trademark) Peroxidase Substrate (SeraCare Life Sciences, Inc.) and the chromogenic reaction was stopped using KPL TMB (registered trademark) Peroxidase Stop Solution (SeraCare Life Sciences, Inc.). Absorbance at 450 nm was measured using a SpectraMax (registered trademark) 190 microplate reader (Molecular Devices, LLC).

[2] = molecular target: T2, recombinant human ErbB2/Her2 Fc chimera (R&D Systems Inc.) (human, UniProt P04626 23-652); experiment: ELISA, antigen coated at 5 ug/mL, biotin-labeled antibody, HRP-streptavidin
T2 construct: Bought reagent, coated on the ELISA plate; also called antigen of trastuzumab; Fc part of the bought chimera not given
Method: as §1

[3] = molecular target: T3, interleukin 8 (CXCL8) (Shenandoah Biotechnology, Inc.) (UniProt P10145 28-99, limits assumed); experiment: ELISA, antigen coated at 5 ug/mL, HRP anti-human IgG Fc detection
T3 construct: Bought reagent, coated on the ELISA plate; also called IL-8
T3 sequence (looked up): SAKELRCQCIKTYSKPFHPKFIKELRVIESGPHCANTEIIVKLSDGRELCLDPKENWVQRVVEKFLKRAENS
Method: as §1

[4] = molecular target: T4, human CD20/MS4A1 full-length protein, His tag (HEK293) (ACROBiosystems Inc.) (human, UniProt P11836 1-297); experiment: as above
T4 construct: mature; Bought reagent, coated on the ELISA plate; also called antigen of rituximab; not shown: His tag
T4 sequence (looked up): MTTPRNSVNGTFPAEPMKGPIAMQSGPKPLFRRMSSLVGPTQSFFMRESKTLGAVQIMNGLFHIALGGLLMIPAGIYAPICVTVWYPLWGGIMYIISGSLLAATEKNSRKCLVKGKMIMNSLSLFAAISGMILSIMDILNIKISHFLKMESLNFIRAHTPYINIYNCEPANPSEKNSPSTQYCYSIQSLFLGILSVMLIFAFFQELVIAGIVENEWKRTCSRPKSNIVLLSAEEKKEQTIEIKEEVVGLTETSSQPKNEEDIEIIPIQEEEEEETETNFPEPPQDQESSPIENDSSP
Method: as §1

B1: anti-IL-6 antibody (mouse/human chimeric antibody), light chain FR3 not substituted (antibody, human IgG1, kappa, V domains shown)
VH: EVQLQQSGPELVKPGASVKMSCKASGYTFTSYVMHWVKQKPGQGLEWIGYINPYNDGTKYNEKFKGKATLTSDKSSSTAYMELSSLTSEDSAVYYCAREGYGNLERDCWGQGTSVTVSS
VL: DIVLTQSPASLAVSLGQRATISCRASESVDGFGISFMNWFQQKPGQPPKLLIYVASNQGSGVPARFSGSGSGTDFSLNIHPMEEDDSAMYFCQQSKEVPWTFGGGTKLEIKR
notes: also called WT; anti-interleukin (IL)-6 antibody
EC50 [1]: 0.041 µg/mL
EC50 ratio [1]: 1 ratio (EC50 in WT taken as 1.0)

B3: R3 variant of trastuzumab (antibody, human IgG1, kappa, V domains shown)
VH: not shown
VL: DIQMTQSPSSLSASVGDRVTITCRASQDVNTAVAWYQQKPGKAPKLLIYSASFLYSGVPSRFSGRRRGTRFTLTISSLQPEDFATYYCQQHYTTPPTFGQGTKVEIKR
notes: IgG; Light chain positions 65, 67 and 70 (Chothia) are arginine; Labeled with biotin (Biotin Labeling Kit-NH2) before the ELISA; also called trastuzumab R3
EC50 [2]: 0.0252 µg/mL
EC50 ratio [2]: 2 ratio (EC50 in WT taken as 1.0)

B4: R4 variant of trastuzumab (antibody, human IgG1, kappa, V domains shown)
VH: not shown
VL: B3 VL with S63R
notes: IgG; Light chain positions 63, 65, 67 and 70 (Chothia) are arginine; Labeled with biotin (Biotin Labeling Kit-NH2) before the ELISA; also called trastuzumab R4
EC50 [2]: 0.0342 µg/mL
EC50 ratio [2]: 1.5 ratio (EC50 in WT taken as 1.0)

B5: R3 variant of anti-IL-8 antibody (antibody, human IgG1, kappa, V domains shown)
VH: EVKLVESGGGLVKPGGSLKLSCAASGFTFNNYAMSWVRQTPEKRLEWVASISSGGNTYYPDSVKGRFTLSRDNARNILYLQMSRLRSEDTAMYYCARDKLRLPNWYFDVWGAGTTVTVSS
VL: DIVLTQSPPSLAVSLGQRATISCKASQSVDYDGDSYMNWYQQKPGQPPKVLIYGASNLESGIPARFRGRGRGTDFTLNIYPVEEEDAATYYCQQSNEDPPTFGGGTKLEIKR
notes: IgG; Light chain positions 63, 65 and 67 (Chothia) are arginine; also called anti-IL-8 antibody R3
EC50 [3]: 0.269 µg/mL
EC50 ratio [3]: 1.4 ratio (EC50 in WT taken as 1.0)

B8: R3 variant of rituximab (antibody, human IgG1, kappa, V domains shown)
VH: QVQLQQPGAELVKPGASVKMSCKASGYTFTSYNMHWVKQTPGRGLEWIGAIYPGNGDTSYNQKFKGKATLTADKSSSTAYMQLSSLTSEDSAVYYCARSTYYGGDWYFNVWGAGTTVTVSA
VL: QIVLSQSPAILSASPGEKVTMTCRASSSVSYIHWFQQKPGSSPKPWIYATSNLASGVPVRFRGRGRGTSYSLTISRVEAEDAATYYCQQWTSNPPTFGGGTKLEIKR
notes: IgG; Light chain positions 63, 65 and 67 (Chothia) are arginine; Heavy chain is that of rituximab; also called rituximab R3
EC50 [4]: 1.71 µg/mL
EC50 ratio [4]: 74.6 ratio (EC50 in WT taken as 1.0)

B9: R5 variant of rituximab (antibody, human IgG1, kappa, V domains shown)
VH: B8 VH
VL: B8 VL with S69R, S71R
notes: IgG; Light chain positions 63, 65, 67, 70 and 72 (Chothia) are arginine; also called rituximab R5
EC50 [4]: 0.027 µg/mL
EC50 ratio [4]: 4710 ratio (EC50 in WT taken as 1.0)

Other lines, results leading:

EC50 [1]: 0.0327 µg/mL
EC50 ratio [1]: 1.3 ratio (EC50 in WT taken as 1.0)
B2: R5 variant of anti-IL-6 antibody (antibody, human IgG1, kappa, V domains shown)
VH: B1 VH
VL: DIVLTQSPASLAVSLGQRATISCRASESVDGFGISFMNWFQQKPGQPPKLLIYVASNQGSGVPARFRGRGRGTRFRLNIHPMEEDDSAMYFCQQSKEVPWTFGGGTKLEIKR
notes: IgG; Light chain positions 63, 65, 67, 70 and 72 (Chothia) are arginine; also called anti-IL-6 antibody R5

EC50 [3]: 0.0598 µg/mL
EC50 ratio [3]: 6.5 ratio (EC50 in WT taken as 1.0)
B6: R4 variant of anti-IL-8 antibody (antibody, human IgG1, kappa, V domains shown)
VH: B5 VH
VL: B5 VL with D74R
notes: IgG; Light chain positions 63, 65, 67 and 70 (Chothia) are arginine; also called anti-IL-8 antibody R4

EC50 [3]: 0.39 µg/mL
EC50 ratio [3]: 1 ratio (EC50 in WT taken as 1.0)
B7: anti-IL-8 antibody (mouse/human chimeric antibody), light chain FR3 not substituted (antibody, human IgG1, kappa, V domains shown)
VH: B5 VH
VL: B5 VL with R67S, R69S, R71S
notes: also called WT; anti-IL-8 antibody WT

EC50 [4]: 127 µg/mL
B10: rituximab (mouse/human chimeric antibody), light chain FR3 not substituted (antibody, human IgG1, kappa, V domains shown)
VH: B8 VH
VL: B8 VL with R62S, R64S, R66S
notes: also called WT; rituximab WT
